Source: the supplement of paper PMC7125110
± gives the standard error. For some of these results: Fewer inactive variants are shown than the library holds.

B1: glmS ribozyme (parent)
chain: AUAAAAGCGCCAGAACUACAGAAAUGUAGUUGACGAGGAGGAGGUUUAUCGAAUUUUCGGCGGAUGCCUCCAAA

How the values were obtained:
Details in all cases: with glucosamine-6-phosphate
glucosamine-6-phosphate [1] = variants of: B1; assay: kcat; higher = faster cleavage; RNA array
Outline: (§1)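 Glucosamine-6-phosphate in HEPES/KCl/Mg(OAc)2 buffer, at 40 μM to 10 mM, was flowed over barcoded ribozyme variants transcribed in situ by E. coli RNA polymerase on sequenced MiSeq chips. Tracking was through a hybridised Cy3 probe at 37 °C. kobs, kcat and KM came from exponential decay fits and weighted Michaelis–Menten fits of normalised per-tile medians.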

glucosamine-6-phosphate [2] = variants of: B1; assay: KM; higher = weaker cofactor use; RNA array
Outline: as §1

glucosamine-6-phosphate [3] = variants of: B1; assay: self-cleavage kobs at 40 uM GlcN6P; higher = faster cleavage; RNA array
Outline: as §1

glucosamine-6-phosphate [4] = variants of: B1; assay: self-cleavage kobs at 160 uM GlcN6P; higher = faster cleavage; RNA array
Outline: as §1

glucosamine-6-phosphate [5] = variants of: B1; assay: self-cleavage kobs at 640 uM GlcN6P; higher = faster cleavage; RNA array
Outline: as §1

glucosamine-6-phosphate [6] = variants of: B1; assay: self-cleavage kobs at 2500 uM GlcN6P; higher = faster cleavage; RNA array
Outline: as §1

glucosamine-6-phosphate [7] = variants of: B1; assay: self-cleavage kobs at 10000 uM GlcN6P; higher = faster cleavage; RNA array
Outline: as §1

Variant | kcat (glucosamine-6-phosphate [1]) [s⁻¹] | KM (glucosamine-6-phosphate [2]) [µM] | self-cleavage kobs at 40 uM GlcN6P (glucosamine-6-phosphate [3]) [s⁻¹] | self-cleavage kobs at 160 uM GlcN6P (glucosamine-6-phosphate [4]) [s⁻¹] | self-cleavage kobs at 640 uM GlcN6P (glucosamine-6-phosphate [5]) [s⁻¹] | self-cleavage kobs at 2500 uM GlcN6P (glucosamine-6-phosphate [6]) [s⁻¹] | self-cleavage kobs at 10000 uM GlcN6P (glucosamine-6-phosphate [7]) [s⁻¹]
A12C A15G | 0.016 ± 0.0031 | 2400 ± 600 | 0.000302 ± 3.5e-05 | 0.000883 ± 0.00014 | 0.00332 ± 0.0006 | 0.00626 ± 0.0015 | 0.0142 ± 0.0018
G7U U55A | < 1e-05 |  |  | < 1e-05 | < 1e-05 | < 1e-05 | 
C10U C67G U69G | 1.67e-05 ± 3.6e-06 |  |  |  |  |  | 
A12G A53U C67U | 0.000372 ± 8.2e-05 | 6210 ± 2000 |  |  |  | 0.00011 ± 1.7e-05 | 0.00022 ± 7.2e-05
G13A G29A | 0.000248 ± 8.5e-06 | 4980 ± 320 |  |  |  | 8.32e-05 ± 1.2e-05 | 0.000165 ± 2.4e-05
A12U G44U | 0.000852 ± 0.00012 | 1290 ± 350 | 3.83e-05 ± 8.2e-06 | 7.54e-05 ± 1.9e-05 | 0.000264 ± 4.7e-05 | 0.000645 ± 0.0001 | 0.000739 ± 8e-05
A12C A64C | 0.000233 ± 1.8e-05 | 4850 ± 770 |  |  |  | 8.34e-05 ± 1.5e-05 | 0.000156 ± 2e-05
C11U | 0.00338 ± 0.00074 | 1800 ± 450 | 8.01e-05 ± 1.4e-06 | 0.000216 ± 7.8e-06 | 0.000837 ± 8.1e-05 | 0.00508 ± 0.0016 | 0.00293 ± 9.8e-05
C11A | 0.000291 ± 2.1e-05 | 2280 ± 280 | < 1e-05 | 2.39e-05 ± 2.4e-06 | 6.25e-05 ± 1.7e-06 | 0.000153 ± 3.1e-06 | 0.000236 ± 1.4e-05
C11G | < 1e-05 | 665 ± 260 | < 1e-05 |  |  |  | < 1e-05
G9A A12C | < 1e-05 |  |  |  | < 1e-05 |  | 
C10U A33U U54C | 4.81e-05 ± 4.1e-06 | 3720 ± 750 |  |  |  |  | 3.5e-05 ± 1.5e-05
A6U A15G U30C | 0.000345 ± 9.4e-05 |  |  |  | 5.44e-05 ± 2e-05 | 0.00023 ± 6.3e-05 | 0.000255 ± 5.8e-05
A12C U45A A64U | 0.00036 ± 8.2e-05 | 5800 ± 2500 |  |  | 2.84e-05 ± 1.2e-05 | 0.000134 ± 3.1e-05 | 0.000223 ± 3.2e-05
A6U G32A | < 1e-05 |  | < 1e-05 | < 1e-05 |  |  | 
A12U G40A | 0.0133 ± 0.0024 | 1110 ± 310 | 0.000618 ± 0.00017 | 0.00156 ± 0.00048 | 0.0042 ± 0.001 | 0.00929 ± 0.0029 | 0.013 ± 0.0034

Variant | kcat (glucosamine-6-phosphate [1]) [s⁻¹] | KM (glucosamine-6-phosphate [2]) [µM] | self-cleavage kobs at 40 uM GlcN6P (glucosamine-6-phosphate [3]) [s⁻¹] | self-cleavage kobs at 160 uM GlcN6P (glucosamine-6-phosphate [4]) [s⁻¹] | self-cleavage kobs at 640 uM GlcN6P (glucosamine-6-phosphate [5]) [s⁻¹] | self-cleavage kobs at 2500 uM GlcN6P (glucosamine-6-phosphate [6]) [s⁻¹] | self-cleavage kobs at 10000 uM GlcN6P (glucosamine-6-phosphate [7]) [s⁻¹]
C10U A36U | < 1e-05 |  | < 1e-05 | < 1e-05 |  |  | < 1e-05
C11A C68U | 5.04e-05 ± 2.5e-06 | 459 ± 170 |  |  | 3.2e-05 ± 1.4e-05 | 3.54e-05 ± 1.4e-05 | 4.9e-05 ± 6.3e-06
A6U A15G | 0.000987 ± 0.00028 |  |  |  | 4.1e-05 ± 1.2e-05 | 0.0002 ± 3.8e-05 | 0.000441 ± 5.1e-05
C11U U56A C70U | 0.00048 ± 0.00011 |  | 3.04e-05 ± 9.5e-06 |  | 0.000508 ± 0.00011 | 0.000485 ± 0.00013 | 0.000416 ± 6.3e-05
A12U U49G | 0.00213 ± 0.00037 | 2950 ± 780 | 3.38e-05 ± 7.4e-06 | 9.35e-05 ± 1.5e-05 | 0.000495 ± 7.3e-05 | 0.000912 ± 0.00012 | 0.00167 ± 0.00018
A12U G60U | 1.13e-05 ± 1.6e-06 |  | < 1e-05 | < 1e-05 |  |  | < 1e-05
A12U G60A | 8.33e-05 ± 8e-06 | 2040 ± 700 |  |  | 2.88e-05 ± 1.4e-05 | 4.12e-05 ± 1e-05 | 7.02e-05 ± 8.4e-06
A12G U47G | 0.000821 ± 0.00017 | 4640 ± 1600 |  | 1.69e-05 ± 7.8e-06 | 0.000127 ± 1.6e-05 | 0.000266 ± 2.7e-05 | 0.000573 ± 4.8e-05
A12G U56C | 0.000482 ± 5.2e-05 | 9850 ± 1600 |  |  | 3.18e-05 ± 1.4e-05 | 9.57e-05 ± 1.7e-05 | 0.000244 ± 3.4e-05
G7A C34U C70G | 1.85e-05 ± 9.1e-06 |  |  |  |  |  | 
C11U C58U | 3.64e-05 ± 4.6e-06 |  |  |  |  | 4.05e-05 ± 1.3e-05 | 3.32e-05 ± 7.1e-06
C11U C58G | 3.35e-05 ± 2.6e-07 | 188 ± 18 |  |  |  | 3.13e-05 ± 1e-05 | 3.28e-05 ± 7.7e-06
A12U G41A | 0.00189 ± 0.00051 | 456 ± 210 | 0.000183 ± 2e-05 | 0.00038 ± 0.00011 | 0.00073 ± 0.00014 | 0.00213 ± 0.0004 | 0.00216 ± 0.00028
C10U U69G | 2.93e-05 ± 5.7e-06 |  |  | 2.85e-05 ± 8.2e-06 | 2.55e-05 ± 1.1e-05 | 3.24e-05 ± 9.9e-06 | 
G9A C61U | 0.000168 ± 1.3e-05 | 1390 ± 290 |  |  | 5.18e-05 ± 1.1e-05 | 0.000144 ± 5.4e-05 | 0.000146 ± 1.8e-05
